# Measured values as given in paper doi:10.1101/2021.03.09.434581.
# Several values for one entry are separate records, joined by “and”; a condition that tells them apart may be missing. Equal entries are not always repeated.
# What was measured:
# [1] = target: Vibrio cholerae ParD2 N-terminal domain as found in the crystal (Vibrio cholerae); experiment: crystal structure
# [2] = target: Vibrio cholerae ParD2 antitoxin, full length (Vibrio cholerae); experiment: SEC-SAXS
# [3] = target: Vibrio cholerae ParD2 antitoxin, full length (Vibrio cholerae); experiment: SEC-MALS
Substance,stoichiometry N [1],stoichiometry N [2],stoichiometry N [3]
Vibrio cholerae ParD2 N-terminal domain as found in the crystal (domain or fragment),16,–,–
"Vibrio cholerae ParD2 antitoxin, full length (natural protein)",–,12,10 and 12 and 8
